Test system: small intestinal immune cells
Experiment: Droplet-based scRNA-seq of small intestinal immune cells (LP and PP), OVA vs PBS, clustering and differential expression
Format: in vivo, mouse
Settings: PP; cluster ID 8; OVA vs PBS
From the text: To comprehensively characterize small intestinal immune cells, Applicants generated scRNA-Seq profiles for 58,067 immune cells collected from lamina propria (LP) and Peyer's patch (PP) regions at steady state and after induction of a type 2 inflammatory reaction to ovalbumin (OVA) (Brandt et al., 2003) (FIGS. 1A and 8A). To ensure sufficient representation of rare cells, Applicants combined a normalization strategy—removing by flow sorting either a portion of IgD+ naïve B cells, which are the most abundant cell type in PPs, or all CD19+ and CD3+ T cells (FIG. 8B, Methods)—with profiling of a sufficiently large number of cells number (P>0.99 to recover at least 15 cells from each cluster, Methods) by massively parallel scRNA-seq (Haber et al., 2017) (Methods). Applicants obtained 36,797 and 21,270 high quality cells passing initial filtering (Methods) from PP and LP regions, respectively.
Overall, Applicants annotated 27 cell subsets across the two compartments, spanning T cells, B cells, ILCs, dendritic cells (DCs), myeloid cells and stromal cells, in frequencies ranging from 0.07% to 14%. Briefly, Applicants first partitioned the cells from the PP regions by unsupervised clustering (Methods) into 46 clusters, retained the 97% of cells that were robustly assigned cell identities in each cluster (Methods), assigned the cells from the LP regions to the 46 clusters using a classifier (Methods), and visualized the data with scvis (Ding et al., 2018), a deep generative model-based method (FIGS. 1B and 8C, Methods). Next, Applicants identified genes that were differentially expressed between the cells in each cluster and the remaining cells (Table 1, Methods), as well as between pairs of clusters (Table 2), to elucidate identities of similar cell types/states. Applicants excluded from downstream analysis clusters mostly consisting of contaminants from epithelium, likely doublets, or cells with a small number of Unique Molecular Identifiers (UMIs) (FIGS. 1C and 8D), or lacking distinct markers (Methods). Altogether, Applicants retained 27 clusters spanning 85% of the cells and each associated with distinct marker genes (FIG. 8E, Methods).
To induce allergic reaction to OVA, 6 to 7 weeks old mice were sensitized twice, two weeks apart, with 50 μg of OVA plus 1 mg of aluminum potassium sulfate adjuvant via intraperitoneal injection. Two weeks later, mice were orally administered with 50 mg of OVA on every other day for a total of five times. 1 μg of α-CGRP peptide was administered simultaneously when indicated. Mice were deprived of food for 3-4 hours in cages with wood chip bedding for limiting antigen degradation in the stomach before each intragastric challenge.
Isolation of cells from Peyer's patches (PPs). Peyer's patches (PPs) were carefully dissected from the small intestine under a stereo microscope using a fine scissor, pierced once with a fine forcep. Tissues were digested in freshly made digestion buffer (RPMI-1640 containing 100 μg/ml Liberase™ and 50 μg/ml DNase I at 37° C. on a roto-mixer. After 15 min, tissues were very gently mixed using a 1 ml pipette. The supernatant was collected and added to ice-cold MACS buffer (pH 7.4; PBS plus 2% FCS and 2 mM EDTA). Pre-warmed (37° C.) fresh digestion buffer was added to the remaining tissues. After rotation at 37° C. for 15 min, the mixture was vigorously mixed using a 1 ml pipette for 1 min. Supernatants from the two steps were combined and passed through 70 μm filters and stained for FACS (below).
Isolation of cells from the lamina propria (LP). The small intestines were opened longitudinally and washed in ice-cold PBS. For scRNA-seq, roughly 0.5 cm of fragments from each of the distal, middle and proximal regions without visible PPs were collected. Epithelial cells were dissociated by tissue rotation in pre-warmed (37° C.) PBS containing 10 mM EDTA at 37° C. for 15 min, followed by additional incubation on ice for 15 min. Tissues were then shaken vigorously. […]

B1: OVA (protein, UniProt P01012 2-386, looked up)
Ovalbumin: GSIGAASMEFCFDVFKELKVHHANENIFYCPIAIMSALAMVYLGAKDSTRTQINKVVRFDKLPGFGDSIEAQCGTSVNVHSSLRDILNQITKPNDVYSFSLASRLYAEERYPILPEYLQCVKELYRGGLEPINFQTAADQARELINSWVESQTNGIIRNVLQPSSVDSQTAMVLVNAIVFKGLWEKAFKDEDTQAMPFRVTEQESKPVQMMYQIGLFRVASMASEKMKILELPFASGTMSMLVLLPDEVSGLEQLESIINFEKLTEWTSSNVMEERKIKVYLPRMKMEEKYNLTSVLMAMGITDVFSSSANLSGISSAESLKISQAVHAAHAEINEAGREVVGSAEAGVDAASVSEEFRADHPFLFCIKHIATNAVLFFGRCVSP
With B1 the “Fosl2 LN (average fold change)” value was −0.358, the “Ftl1 LN (average fold change)” value was −0.171 and the “Gadd45b LN (average fold change)” value was −0.563. For the same molecule, the “Gimap1 LN (average fold change)” value was 0.283, the “Gimap6 LN (average fold change)” value was 0.272 and the “Gimap9 LN (average fold change)” value was 0.367. For the same molecule, the “Gnai2 LN (average fold change)” value was −0.261, the “Gramd1a LN (average fold change)” value was 0.460 and the “Gramd3 LN (average fold change)” value was −0.502. For the same molecule, the “Gzma LN (average fold change)” value was 0.340, the “H2-K1 LN (average fold change)” value was 0.192 and the “H3f3b LN (average fold change)” value was −0.185. For the same molecule, the “Hcst LN (average fold change)” value was 0.174, the “Hist1h1c LN (average fold change)” value was 0.586 and the “Hist1h1e LN (average fold change)” value was 1.277. The “Icam1 LN (average fold change)” value was −0.819, the “Id2 LN (average fold change)” value was 0.467 and the “Ier2 LN (average fold change)” value was −0.235. The “Ier5l LN (average fold change)” value was −1.422, the “Ifi203 LN (average fold change)” value was 0.402 and the “Ifrd1 LN (average fold change)” value was −0.708. For the same molecule, the “Igha LN (average fold change)” value was 0.514, the “Igkc LN (average fold change)” value was 0.390 and the “Ikzf2 LN (average fold change)” value was −0.467. For the same molecule, the “Il2rg LN (average fold change)” value was −0.226, the “Il16 LN (average fold change)” value was 0.455 and the “Jun LN (average fold change)” value was 0.210. The “Jund LN (average fold change)” value was −0.703, the “Kdm2b LN (average fold change)” value was −0.379 and the “Kdm6b LN (average fold change)” value was −0.833. For the same molecule, the “Klf4 LN (average fold change)” value was −0.524, the “Klf6 LN (average fold change)” value was 0.166 and the “Klrb1c LN (average fold change)” value was 0.233. The “Klrb1f LN (average fold change)” value was 0.487, the “Klrc1 LN (average fold change)” value was 0.392 and the “Klrc2 LN (average fold change)” value was 0.396. For the same molecule, the “Klrd1 LN (average fold change)” value was 0.261, the “Klre1 LN (average fold change)” value was 0.295 and the “Klrk1 LN (average fold change)” value was 0.213. For the same molecule, the “Lax1 LN (average fold change)” value was 0.486, the “Litaf LN (average fold change)” value was −0.518 and the “Lmna LN (average fold change)” value was −1.022. The “Maff LN (average fold change)” value was −0.445, the “Mcpt1 LN (average fold change)” value was 1.756 and the “Mir142hg LN (average fold change)” value was −0.715. The “Ms4a4b LN (average fold change)” value was 0.271, the “Ms4a6b LN (average fold change)” value was 0.490 and the “Myl6 LN (average fold change)” value was 0.199. For the same molecule, the “Nabp1 LN (average fold change)” value was −0.167, the “Ncr1 LN (average fold change)” value was 0.265 and the “Ndel1 LN (average fold change)” value was −0.337. For the same molecule, the “Neat1 LN (average fold change)” value was 0.275, the “Neurl3 LN (average fold change)” value was −0.244 and the “Nfil3 LN (average fold change)” value was 0.490. The “Nfkb1 LN (average fold change)” value was −0.244, the “Nfkbia LN (average fold change)” value was −0.579 and the “Nfkbid LN (average fold change)” value was −1.010. The “Nfkbie LN (average fold change)” value was −0.483, the “Nfkbiz LN (average fold change)” value was −0.640 and the “Ninj1 LN (average fold change)” value was −0.512. The “Nkg7 LN (average fold change)” value was 0.194, the “Nr4a1 LN (average fold change)” value was −0.415 and the “Nr4a2 LN (average fold change)” value was −0.530. For the same molecule, the “Nr4a3 LN (average fold change)” value was −0.808, the “Odc1 LN (average fold change)” value was −0.540 and the “P2ry10 LN (average fold change)” value was −0.196. The “Phlda1 LN (average fold change)” value was −0.867, the “Pim1 LN (average fold change)” value was −0.358 and the “Pnrc1 LN (average fold change)” value was −0.302. The “Ppp1r15a LN (average fold change)” value was −0.355, the “Ppp1r16b LN (average fold change)” value was −0.367 and the “Ppp3cc LN (average fold change)” value was 0.528. For the same molecule, the “Prr7 LN (average fold change)” value was −0.910 and the “Ptp4a2 LN (average fold change)” value was −0.243.
